Data as given in patent publication US20090203610A1, “METHODS OF TREATING OBESITY OR DIABETES USING NT-4/5” (RINAT NEUROSCIENCE CORPORATION, priority 2004, published 2009).

Key:
Format in all cases: in vivo
DIO mice = experiment: Glucose, triglyceride and oral glucose tolerance in DIO mice (Example 5); conditions: 2 and 10 mg/kg
Procedure: Test animals: Mice with diet induced obesity (DIO) from Jackson Laboratory were used in this study. El-Haschimi, J. Clin. Invest. 105:1827-1832 (2000); Steppan, Nature 409:307-312 (2001). 23 male C57BL/6J mice were weaned at 4 weeks of age. Immediately after weaning they were put on about 58% high fat diet ([…], Research Diet) through out the study. The DIO mice at 13 weeks of age weighing in the range of 28-40 g were used in this study. Older mice at 22-24 weeks of age were also used.
Administration of NT-4/5: NT-4/5 used in this study was obtained from Genentech. The mice were divided into 3 groups of equivalent body weight and baseline blood glucose distribution (7-8 mice per group). Each group received from day 1 to day 5, from day 8 to day 12, from day 15 to 16 a daily subcutaneous dose of either vehicle, 2 mg/kg or 10 mg/kg of NT-4/5, respectively. Five days prior to the treatment started (day −5), a baseline blood samples were collected for measuring glucose and triglyceride. Subsequent to the treatment started (day 1), blood glucose and triglyceride were measured once a week. Body weight, food intake were monitored 5 days per week through out the entire study. From days 57-59, the DIO mice received a daily injection of NT-4/5 at 2 or 10 mg/kg respectively. They were fasted overnight (for 16 hours) before fasting glucose levels were measured and the oral glucose tolerance test was conducted with a load of 2 grams of glucose/kg of body weight.

db/db female mice = experiment: Survival time in db/db mice (Example 12)
Procedure: Db/db female mice maintained as described in Example 1 were divided into two groups. Group 1 (8 mice) were administered with vehicle (PBS). Group 2 (6 mice) was each administered with NT-4/5 at the doses of 20 mg/kg. Both the vehicle and NT-4/5 were administered subcutaneously once daily from day 1 to day 26, and were then followed up for survival. Mortality is defined by the body wasting below 60% of the starting body weight (i.e., from about 40 g down to about 24 g) or natural death, whichever happened first.

db/db mice [1] = experiment: Non-fasting serum glucose after single injection in db/db mice (Example 7); conditions: after 4 days; single subcutaneous injection, 5 mg/kg
Procedure: Test animals: 30 female db/db mice at 7 weeks of age weighing in the range of 27-34 g were used in this study.
Administration of NT-4/5 and pegylated NT-4/5: Wild type NT-4/5 was obtained from Genentech Inc. The mice were divided into 5 groups of equivalent body weight distribution (6 mice per group). Each group received on the first day (day 1) of the study one and the only dose of either vehicle, 5 mg/kg of NT-4/5 produced as described above, 5 mg/kg of 2PEG-NT4-G1S, or 5 mg/kg of 1PEG-NT4-G1S. 2PEG-NT4-G1S represents one PEG molecule was conjugated to each NT-4/5 monomer in a NT-4/5 dimer, and 1PEG-NT4-G1S represents one PEG molecule was conjugated to only one monomer of the NT-4/5 dimer. 2PEG-NT4-G1S and 1PEG-NT4-G1S were separated by ion exchange. Four days before starting the treatment (day −4), blood samples were collected from the mice as described previously for the determination of baseline levels of serum glucose. On day 4 after the treatment started, blood samples were collected again to determine serum glucose level. Body weight and food intake were monitored 5 days a week through out the entire study.

db/db mice [2] = experiment: Long term glucose control in db/db mice (Example 14)
Procedure: Db/db mice maintained as described in Example 1 were divided into five groups (groups 1-5). Group 1 were administered with vehicle (PBS). Group 2, group 3, group 4, group 5 were each administered with NT-4/5 at the doses of 2 mg/kg, 5 mg/kg, 10 mg/kg, and 20 mg/kg, respectively. Both the vehicle and NT-4/5 were administered to each group of the mice subcutaneously once daily from day 1 to day 26. One day before beginning the treatment (day 0), blood samples were collected from the mice as described previously for the determination of baseline levels of serum biomarkers (glucose and insulin). On day 45, HbA1c level was measured. Glucose tolerance test was performed on day 54 (28 days after the last dose of NT-4/5 treatment). Intraperitoneal (IP) glucose tolerance test was conducted by fasting the mice overnight (16 hours) before giving them an IP injection of a load of 2 grams of glucose/kg of body weight. Serum glucose and insulin were also measured.

[3] = DIO mice 12-16 weeks of age, not diabetic
[4] = DIO mice 22-24 weeks of age, overt diabetes

B1: NT-4/5: mature human neurotrophin-4/5 (SEQ ID NO:1), obtained from Genentech or produced in E. coli (protein, listed as Homo sapiens)
chain: GVSETAPASRRGELAVCDAVSGWVTDRRTAVDLRGREVEVLGEVPAAGGSPLRQYFFETRCKADNAEEGGPGAGGGGCRGVDRRHWVSECKAKQSYVRALTADAQGRVGWRWIRIDTACVCTLLSRTGRA
Question: B1 was tested. Which non-fasting glucose levels (DIO mice; [3]) did it give?
Answer: The non-fasting glucose levels was “did not affect”.

Question: What about the non-fasting triglyceride levels (DIO mice; [3]) of the same molecule?
Answer: Its non-fasting triglyceride levels is “did not affect”.

Question: And the fasting glucose level (DIO mice; [4])?
Answer: Its fasting glucose level is “significantly reduced fasting glucose level”.

Question: And the glucose tolerance (DIO mice; [4])?
Answer: The glucose tolerance was “improved glucose tolerance”.

Question: And the “median length of survival” value (db/db female mice; 20 mg/kg s.c. daily day 1 to 26, n=6)?
Answer: The value was 257 days.

Question: And the “difference in median survival versus vehicle control” value (db/db female mice; vehicle 192.5 days, not statistically significant (P=0.1331))?
Answer: Its value is 65 days.

Question: What about the “non-fasting serum glucose levels” value (db/db mice [1]) of the same molecule?
Answer: The value was “showed a tendency to reduce”.

Question: And the serum insulin levels (db/db mice [2]; 10 mg/kg/d, day 6, P<0.05)?
Answer: The serum insulin levels was “significant reduction”.

Question: And the serum insulin levels (db/db mice [2]; 20 mg/kg/d, day 6 and day 14, P<0.05)?
Answer: The serum insulin levels was “significant reduction”.

Question: What about the “non-fasting serum glucose level reduction” value (db/db mice [2]; all treatment groups, remained low until day 29) of the same molecule?
Answer: The value was “more than 50%”.

Question: What about the “HbA1c levels versus vehicle” value (db/db mice [2]; day 45 (15 days post-dose), 2, 5, 10 and 20 mg/kg s.c. daily day 1 to 26) of the same molecule?
Answer: The value was “significantly lower than the vehicle group”.

Question: What about the glucose tolerance (db/db mice [2]; day 54, 28 days after the last dose) of the same molecule?
Answer: Its glucose tolerance is “significantly improved glucose tolerance”.
